From paper PMC3177959

Target: M3 muscarinic acetylcholine receptor labeled at its N terminus with ECFP (human) (UniProt P20309)
Test: FRAP of the mobile partner with the other partner immobilised

Chain of UniProt P20309 (P20309 whole entry): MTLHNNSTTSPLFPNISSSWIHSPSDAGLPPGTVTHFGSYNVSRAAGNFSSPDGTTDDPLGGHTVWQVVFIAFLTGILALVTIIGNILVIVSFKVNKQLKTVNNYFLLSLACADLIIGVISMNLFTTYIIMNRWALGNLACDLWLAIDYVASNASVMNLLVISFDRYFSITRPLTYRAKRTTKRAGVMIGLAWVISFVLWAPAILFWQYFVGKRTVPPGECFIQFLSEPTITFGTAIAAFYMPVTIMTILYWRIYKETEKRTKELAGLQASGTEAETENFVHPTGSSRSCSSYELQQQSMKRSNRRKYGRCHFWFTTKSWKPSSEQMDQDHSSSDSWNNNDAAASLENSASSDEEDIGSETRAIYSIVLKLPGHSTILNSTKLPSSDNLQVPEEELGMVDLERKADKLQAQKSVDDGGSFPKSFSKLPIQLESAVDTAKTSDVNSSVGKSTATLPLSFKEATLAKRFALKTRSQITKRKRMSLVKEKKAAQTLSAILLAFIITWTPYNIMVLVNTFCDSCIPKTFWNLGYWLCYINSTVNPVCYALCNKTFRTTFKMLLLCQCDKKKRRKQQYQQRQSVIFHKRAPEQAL

Gq heterotrimer: venus-labeled Gαq with unlabeled Gβ1 and Gγ2 (from UniProt P21279;P62873;P59768) (complex)
unrecovered fraction five minutes after photobleaching: 0.23
